Source: patent publication US20210388087A1 (Chugai, published 2021)

B1: dBBDu183H V100cK/dBBDu072L (antibody, name in Kabat numbering, V domains shown)
VH: QVQLVESGGGLVQPGRSLRLSCAASGFTFSNAWMHWVRQAPGKGLEWVAQIKDKGNAYAAYYAPSVKGRFTISRDDSKNSIYLQMNSLKTEDTAVYYCHYVHYASASTKLPAFGVDAWGQGTTVTVSS
VL: DIVMTQSPLSLPVTPGEPASISCQASQELVHMNRNTYLHWYQQKPGQAPRLLIYKVSNRFPGVPDRFSGSGSGTDFTLKISRVEAEDVGVYYCAQGTSVPFTFGQGTKLEIK
B2: dBBDu183H V100iH/dBBDu072L (antibody, name in Kabat numbering, V domains shown)
VH: QVQLVESGGGLVQPGRSLRLSCAASGFTFSNAWMHWVRQAPGKGLEWVAQIKDKGNAYAAYYAPSVKGRFTISRDDSKNSIYLQMNSLKTEDTAVYYCHYVHYASASTVLPAFGHDAWGQGTTVTVSS
VL: DIVMTQSPLSLPVTPGEPASISCQASQELVHMNRNTYLHWYQQKPGQAPRLLIYKVSNRFPGVPDRFSGSGSGTDFTLKISRVEAEDVGVYYCAQGTSVPFTFGQGTKLEIK
B3: dBBDu183H V100iE/dBBDu072L (antibody, name in Kabat numbering, V domains shown)
VH: QVQLVESGGGLVQPGRSLRLSCAASGFTFSNAWMHWVRQAPGKGLEWVAQIKDKGNAYAAYYAPSVKGRFTISRDDSKNSIYLQMNSLKTEDTAVYYCHYVHYASASTVLPAFGEDAWGQGTTVTVSS
VL: DIVMTQSPLSLPVTPGEPASISCQASQELVHMNRNTYLHWYQQKPGQAPRLLIYKVSNRFPGVPDRFSGSGSGTDFTLKISRVEAEDVGVYYCAQGTSVPFTFGQGTKLEIK
B4: dBBDu183H V100iG/dBBDu072L (antibody, name in Kabat numbering, V domains shown)
VH: QVQLVESGGGLVQPGRSLRLSCAASGFTFSNAWMHWVRQAPGKGLEWVAQIKDKGNAYAAYYAPSVKGRFTISRDDSKNSIYLQMNSLKTEDTAVYYCHYVHYASASTVLPAFGGDAWGQGTTVTVSS
VL: DIVMTQSPLSLPVTPGEPASISCQASQELVHMNRNTYLHWYQQKPGQAPRLLIYKVSNRFPGVPDRFSGSGSGTDFTLKISRVEAEDVGVYYCAQGTSVPFTFGQGTKLEIK
B5: dBBDu183H V100cQ/dBBDu072L (antibody, name in Kabat numbering, V domains shown)
VH: QVQLVESGGGLVQPGRSLRLSCAASGFTFSNAWMHWVRQAPGKGLEWVAQIKDKGNAYAAYYAPSVKGRFTISRDDSKNSIYLQMNSLKTEDTAVYYCHYVHYASASTQLPAFGVDAWGQGTTVTVSS
VL: DIVMTQSPLSLPVTPGEPASISCQASQELVHMNRNTYLHWYQQKPGQAPRLLIYKVSNRFPGVPDRFSGSGSGTDFTLKISRVEAEDVGVYYCAQGTSVPFTFGQGTKLEIK
B6: dBBDu183H V100cS/dBBDu072L (antibody, name in Kabat numbering, V domains shown)
VH: QVQLVESGGGLVQPGRSLRLSCAASGFTFSNAWMHWVRQAPGKGLEWVAQIKDKGNAYAAYYAPSVKGRFTISRDDSKNSIYLQMNSLKTEDTAVYYCHYVHYASASTSLPAFGVDAWGQGTTVTVSS
VL: DIVMTQSPLSLPVTPGEPASISCQASQELVHMNRNTYLHWYQQKPGQAPRLLIYKVSNRFPGVPDRFSGSGSGTDFTLKISRVEAEDVGVYYCAQGTSVPFTFGQGTKLEIK
B7: dBBDu183H V100iS/dBBDu072L (antibody, name in Kabat numbering, V domains shown)
VH: QVQLVESGGGLVQPGRSLRLSCAASGFTFSNAWMHWVRQAPGKGLEWVAQIKDKGNAYAAYYAPSVKGRFTISRDDSKNSIYLQMNSLKTEDTAVYYCHYVHYASASTVLPAFGSDAWGQGTTVTVSS
VL: DIVMTQSPLSLPVTPGEPASISCQASQELVHMNRNTYLHWYQQKPGQAPRLLIYKVSNRFPGVPDRFSGSGSGTDFTLKISRVEAEDVGVYYCAQGTSVPFTFGQGTKLEIK
B8: dBBDu183H V100cW/dBBDu072L (antibody, name in Kabat numbering, V domains shown)
VH: QVQLVESGGGLVQPGRSLRLSCAASGFTFSNAWMHWVRQAPGKGLEWVAQIKDKGNAYAAYYAPSVKGRFTISRDDSKNSIYLQMNSLKTEDTAVYYCHYVHYASASTWLPAFGVDAWGQGTTVTVSS
VL: DIVMTQSPLSLPVTPGEPASISCQASQELVHMNRNTYLHWYQQKPGQAPRLLIYKVSNRFPGVPDRFSGSGSGTDFTLKISRVEAEDVGVYYCAQGTSVPFTFGQGTKLEIK
B9: dBBDu183H V100cN/dBBDu072L (antibody, name in Kabat numbering, V domains shown)
VH: QVQLVESGGGLVQPGRSLRLSCAASGFTFSNAWMHWVRQAPGKGLEWVAQIKDKGNAYAAYYAPSVKGRFTISRDDSKNSIYLQMNSLKTEDTAVYYCHYVHYASASTNLPAFGVDAWGQGTTVTVSS
VL: DIVMTQSPLSLPVTPGEPASISCQASQELVHMNRNTYLHWYQQKPGQAPRLLIYKVSNRFPGVPDRFSGSGSGTDFTLKISRVEAEDVGVYYCAQGTSVPFTFGQGTKLEIK
B10: dBBDu183H V100iR/dBBDu072L (antibody, name in Kabat numbering, V domains shown)
VH: QVQLVESGGGLVQPGRSLRLSCAASGFTFSNAWMHWVRQAPGKGLEWVAQIKDKGNAYAAYYAPSVKGRFTISRDDSKNSIYLQMNSLKTEDTAVYYCHYVHYASASTVLPAFGRDAWGQGTTVTVSS
VL: DIVMTQSPLSLPVTPGEPASISCQASQELVHMNRNTYLHWYQQKPGQAPRLLIYKVSNRFPGVPDRFSGSGSGTDFTLKISRVEAEDVGVYYCAQGTSVPFTFGQGTKLEIK
B11: dBBDu183H V100cR/dBBDu072L (antibody, name in Kabat numbering, V domains shown)
VH: QVQLVESGGGLVQPGRSLRLSCAASGFTFSNAWMHWVRQAPGKGLEWVAQIKDKGNAYAAYYAPSVKGRFTISRDDSKNSIYLQMNSLKTEDTAVYYCHYVHYASASTRLPAFGVDAWGQGTTVTVSS
VL: DIVMTQSPLSLPVTPGEPASISCQASQELVHMNRNTYLHWYQQKPGQAPRLLIYKVSNRFPGVPDRFSGSGSGTDFTLKISRVEAEDVGVYYCAQGTSVPFTFGQGTKLEIK
B12: dBBDu183H V100cY/dBBDu072L (antibody, name in Kabat numbering, V domains shown)
VH: QVQLVESGGGLVQPGRSLRLSCAASGFTFSNAWMHWVRQAPGKGLEWVAQIKDKGNAYAAYYAPSVKGRFTISRDDSKNSIYLQMNSLKTEDTAVYYCHYVHYASASTYLPAFGVDAWGQGTTVTVSS
VL: DIVMTQSPLSLPVTPGEPASISCQASQELVHMNRNTYLHWYQQKPGQAPRLLIYKVSNRFPGVPDRFSGSGSGTDFTLKISRVEAEDVGVYYCAQGTSVPFTFGQGTKLEIK
B13: dBBDu183H V100iW/dBBDu072L (antibody, name in Kabat numbering, V domains shown)
VH: QVQLVESGGGLVQPGRSLRLSCAASGFTFSNAWMHWVRQAPGKGLEWVAQIKDKGNAYAAYYAPSVKGRFTISRDDSKNSIYLQMNSLKTEDTAVYYCHYVHYASASTVLPAFGWDAWGQGTTVTVSS
VL: DIVMTQSPLSLPVTPGEPASISCQASQELVHMNRNTYLHWYQQKPGQAPRLLIYKVSNRFPGVPDRFSGSGSGTDFTLKISRVEAEDVGVYYCAQGTSVPFTFGQGTKLEIK
B14: dBBDu183H V100iQ/dBBDu072L (antibody, name in Kabat numbering, V domains shown)
VH: QVQLVESGGGLVQPGRSLRLSCAASGFTFSNAWMHWVRQAPGKGLEWVAQIKDKGNAYAAYYAPSVKGRFTISRDDSKNSIYLQMNSLKTEDTAVYYCHYVHYASASTVLPAFGQDAWGQGTTVTVSS
VL: DIVMTQSPLSLPVTPGEPASISCQASQELVHMNRNTYLHWYQQKPGQAPRLLIYKVSNRFPGVPDRFSGSGSGTDFTLKISRVEAEDVGVYYCAQGTSVPFTFGQGTKLEIK
B15: dBBDu183H V100iT/dBBDu072L (antibody, name in Kabat numbering, V domains shown)
VH: QVQLVESGGGLVQPGRSLRLSCAASGFTFSNAWMHWVRQAPGKGLEWVAQIKDKGNAYAAYYAPSVKGRFTISRDDSKNSIYLQMNSLKTEDTAVYYCHYVHYASASTVLPAFGTDAWGQGTTVTVSS
VL: DIVMTQSPLSLPVTPGEPASISCQASQELVHMNRNTYLHWYQQKPGQAPRLLIYKVSNRFPGVPDRFSGSGSGTDFTLKISRVEAEDVGVYYCAQGTSVPFTFGQGTKLEIK
B16: dBBDu183H V100iF/dBBDu072L (antibody, name in Kabat numbering, V domains shown)
VH: QVQLVESGGGLVQPGRSLRLSCAASGFTFSNAWMHWVRQAPGKGLEWVAQIKDKGNAYAAYYAPSVKGRFTISRDDSKNSIYLQMNSLKTEDTAVYYCHYVHYASASTVLPAFGFDAWGQGTTVTVSS
VL: DIVMTQSPLSLPVTPGEPASISCQASQELVHMNRNTYLHWYQQKPGQAPRLLIYKVSNRFPGVPDRFSGSGSGTDFTLKISRVEAEDVGVYYCAQGTSVPFTFGQGTKLEIK
B17: dBBDu183H V100iN/dBBDu072L (antibody, name in Kabat numbering, V domains shown)
VH: QVQLVESGGGLVQPGRSLRLSCAASGFTFSNAWMHWVRQAPGKGLEWVAQIKDKGNAYAAYYAPSVKGRFTISRDDSKNSIYLQMNSLKTEDTAVYYCHYVHYASASTVLPAFGNDAWGQGTTVTVSS
VL: DIVMTQSPLSLPVTPGEPASISCQASQELVHMNRNTYLHWYQQKPGQAPRLLIYKVSNRFPGVPDRFSGSGSGTDFTLKISRVEAEDVGVYYCAQGTSVPFTFGQGTKLEIK
B18: dBBDu183H V100cT/dBBDu072L (antibody, name in Kabat numbering, V domains shown)
VH: QVQLVESGGGLVQPGRSLRLSCAASGFTFSNAWMHWVRQAPGKGLEWVAQIKDKGNAYAAYYAPSVKGRFTISRDDSKNSIYLQMNSLKTEDTAVYYCHYVHYASASTTLPAFGVDAWGQGTTVTVSS
VL: DIVMTQSPLSLPVTPGEPASISCQASQELVHMNRNTYLHWYQQKPGQAPRLLIYKVSNRFPGVPDRFSGSGSGTDFTLKISRVEAEDVGVYYCAQGTSVPFTFGQGTKLEIK
B19: dBBDu183H V100iK/dBBDu072L (antibody, name in Kabat numbering, V domains shown)
VH: QVQLVESGGGLVQPGRSLRLSCAASGFTFSNAWMHWVRQAPGKGLEWVAQIKDKGNAYAAYYAPSVKGRFTISRDDSKNSIYLQMNSLKTEDTAVYYCHYVHYASASTVLPAFGKDAWGQGTTVTVSS
VL: DIVMTQSPLSLPVTPGEPASISCQASQELVHMNRNTYLHWYQQKPGQAPRLLIYKVSNRFPGVPDRFSGSGSGTDFTLKISRVEAEDVGVYYCAQGTSVPFTFGQGTKLEIK
B20: dBBDu183H V100iD/dBBDu072L (antibody, name in Kabat numbering, V domains shown)
VH: QVQLVESGGGLVQPGRSLRLSCAASGFTFSNAWMHWVRQAPGKGLEWVAQIKDKGNAYAAYYAPSVKGRFTISRDDSKNSIYLQMNSLKTEDTAVYYCHYVHYASASTVLPAFGDDAWGQGTTVTVSS
VL: DIVMTQSPLSLPVTPGEPASISCQASQELVHMNRNTYLHWYQQKPGQAPRLLIYKVSNRFPGVPDRFSGSGSGTDFTLKISRVEAEDVGVYYCAQGTSVPFTFGQGTKLEIK

Target: T1, Human CD3eg linker (human)
T1 construct: single-chain construct; also called recombinant human CD3
T1 chain: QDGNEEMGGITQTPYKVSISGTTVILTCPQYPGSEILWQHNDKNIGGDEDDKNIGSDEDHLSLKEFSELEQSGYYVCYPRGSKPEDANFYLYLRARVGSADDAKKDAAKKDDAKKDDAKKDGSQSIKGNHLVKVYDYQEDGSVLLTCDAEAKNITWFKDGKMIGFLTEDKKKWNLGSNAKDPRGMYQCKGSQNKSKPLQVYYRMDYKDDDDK
Test: SPR, vs unmutated H183/L072

Q: With B1 as the binder, how does the “fold change of affinity” value read?
A: 1.2 fold

Q: With B2 as the binder, how does the “fold change of affinity” value read?
A: 2.2 fold

Q: How did the “fold change of affinity” value turn out when B3 was run?
A: 1.4 fold

Q: B4 was tested. Which “fold change of affinity” value did it give?
A: 1.8 fold

Q: B5 was tested. Which “fold change of affinity” value did it give?
A: 1.4 fold

Q: With B6 as the binder, how does the “fold change of affinity” value read?
A: 1.1 fold

Q: With B7 as the binder, how does the “fold change of affinity” value read?
A: 1.9 fold

Q: How did the “fold change of affinity” value turn out when B8 was run?
A: 1.5 fold

Q: Which “fold change of affinity” value does the source give for B9 here?
A: 1 fold

Q: B10 was tested. Which “fold change of affinity” value did it give?
A: 4 fold

Q: Which “fold change of affinity” value does the source give for B11 here?
A: 1.5 fold

Q: With B12 as the binder, how does the “fold change of affinity” value read?
A: 1.3 fold

Q: For B13, which “fold change of affinity” value is on record?
A: 4.9 fold

Q: For B14, which “fold change of affinity” value is on record?
A: 3.6 fold

Q: Which “fold change of affinity” value does the source give for B15 here?
A: 1 fold

Q: For B16, which “fold change of affinity” value is on record?
A: 3.2 fold

Q: Which “fold change of affinity” value does the source give for B17 here?
A: 5 fold

Q: B18 was tested. Which “fold change of affinity” value did it give?
A: 1 fold

Q: B19 was tested. Which “fold change of affinity” value did it give?
A: 2.4 fold

Q: B20 was tested. Which “fold change of affinity” value did it give?
A: 2.4 fold
